Source: PMC9481602 (2022)

Key:
nonmodified ubiquitin = nonmodified ubiquitin (UniProt P0CG48 1-76); test: NMR
[1] = target: ubiquitin acetylated at K48 (UniProt P0CG48 1-76, acetyllysine (AcK) at position 48); test: NMR

Binder: RFQQQLEQLNAMGFLNREANLQALIATGGDINAAIERLLGS (domain or fragment) [UBA domain of human Ubiquilin-2]
- Kd (nonmodified ubiquitin): 500 nM
- Kd [1]: 1300 nM
